Assay results published in patent publication US20220340673A1 (HARBOUR BIOMED SUZHOU, published 2022).

How the values were obtained:
[1] = target: T1, human BCMA on cells (HEK293T/huBCMA; NCI-H929) (human, UniProt Q02223 1-184); assay: FACS on NCI-H929 cell line [B]
T1 construct: whole, on cells; also called human BCMA molecules on NCI-H929 cell line
T1 sequence (looked up): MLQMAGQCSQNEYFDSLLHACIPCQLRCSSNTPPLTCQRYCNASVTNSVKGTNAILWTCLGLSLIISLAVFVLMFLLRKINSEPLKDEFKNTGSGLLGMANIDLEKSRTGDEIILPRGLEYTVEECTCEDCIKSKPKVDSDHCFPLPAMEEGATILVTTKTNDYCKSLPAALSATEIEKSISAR
Description: To study the binding activity of the BCMA arm of the BCMA×CD3 bispecific antibody to human BCMA, NCI-H929 cell line with highly expressed BCMA was used for binding experiments with human BCMA at cellular level. Briefly, NCI-H929 cell suspensions were collected. The cell density was adjusted to 1×10⁶ cells/mL, and the cells were inoculated in 96 well V-bottom plates at 100 μL cells/well (Corning, Cat#: 3894), followed by the addition of test antibodies at 100 μL/well, which is gradient diluted at 3 folds of the concentration with 2 folds of the final concentration. Cells were incubated at 4° C. for 2 hours in the dark. Afterwards, cells were washed twice with 100 μL/well of pre-cooled PBS, centrifuged at 500 g for 5 min at 4° C., and followed by discarding the supernatant. 100 μL/well of fluorescent secondary antibody (Alexa Fluor 488-conjugated AffiniPure Goat Anti-Human IgG, Fcγ Fragment Specific, Jackson, Cat#:109-545-06, 1:500 dilution) was added and incubated at 4° C. for 1 hour in the dark. Cells were washed twice with 100 μL/well of pre-cooled PBS, centrifuged at 500 g, 4° C. for 5 min, and followed by discarding the supernatant. Finally, the cells were resuspended with 200 μL/well of pre-cooled PBS, and the fluorescence luminescence signal values were read by BD FACS CANTOII.

[2] = target: T2, human BCMA-Fc, Avitag recombinant protein (ACRO, Cat. BC7-H82F0) (human, UniProt Q02223 1-54); assay: SPR (Biacore T200), antigen amine-coupled on CM5, antibody as analyte, 1:1 fit
T2 construct: extracellular domain; Bought reagent; amine-coupled to the CM5 chip in the Biacore assay; also called recombinant human BCMA-ECD-Fc; human BCMA recombinant protein; not shown: Fc and Avitag of the bought protein
T2 sequence (looked up): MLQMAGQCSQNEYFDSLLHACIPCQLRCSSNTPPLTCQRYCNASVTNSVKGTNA
Description: (§1) The flow rate was set as 10 μl/min and four antigens were coupled on four channels on two CMS: 1) the injection time was set as 300 s, and 50 mM of NHS and 200 mM of EDC were freshly mixed at 1:1 volume ratio and injected into four channels; 2) human BCMA-Fc, Avitag recombinant protein, cynomolgus monkey BCMA-FC, Avitag, human CD3e/g ECD-hFc recombinant protein and cynomolgus CD3e/g ECD-hFc recombinant protein were all diluted to 1 μg/ml with sodium acetate (Cat# BR-1003-50) (pH 4.5), and injected into channel 2, 3 and 4 of chip 1 and channel 2 of chip 2, respectively; 3) 1 M of ethanolamine (pH8.5) was injected for 300 s to block the remaining active carboxyl groups on the chips surface. After blockage, the instrument was continued to be equilibrated with 1 ×HBS- EP+buffer for two hours. The final coupling amounts of human BCMA-Fc, Avitag recombinant protein, cynomolgus monkey BCMA-Fc, Avitag, human CD3e/g ECD-hFc recombinant protein and cynomolgus monkey CD3e/g ECD-hFc recombinant protein were 120 RU, 70 RU, 200 RU and 290 RU, respectively.
(§2) A multi-cycle kinetic mode was set, and each cycle included the binding of PRO03178 as well as the regeneration of the chip. […]
(§3) The experimental results were analyzed by using Biacore T200 analysis software, and channel 1 was deducted as reference channel, and a 1:1 kinetic fit model was selected as the analysis model.

[3] = target: T3, human CD3e/g ECD-hFc recombinant protein (human, UniProt P07766 23-126; P09693 23-116); assay: as above
T3 construct: extracellular domain; Bought from ChemPartner; not shown: human Fc
Description: as §1, §2, §3

[4] = target: T4, cynomolgus monkey BCMA on cells (HEK293T/cynoBCMA) (cynomolgus monkey, UniProt A0A2K5UD97 1-183); assay: FACS on HEK293T cell strain overexpressing cynomolgus monkey BCMA [C]
T4 construct: whole, on cells
Text: To study the in vitro binding activity of the BCMA arm of the BCMA×CD3 bispecific antibody, HEK293T cell strain overexpressing human BCMA (HEK293T/huBCMA) and HEK293T cell strain overexpressing cynomolgus monkey BCMA (HEK293T/cynoBCMA) were used for antibody binding experiments at cellular level. Briefly, HEK293T/huBCMA cells and HEK293T/cynoBCMA cells were digested and resuspended with DMEM complete medium. The cell density of the two was adjusted to 1×10⁶ cells/mL, respectively. Cells were inoculated at 100 μL cells/well in a 96 well V-bottom plate (Corning, Cat#: 3894), followed by the addition of test antibodies at 100 μL/well, which is gradient diluted at 3 folds of the concentration with 2 folds of the final concentration. Cells were incubated at 4° C. for 1 hour in the dark. Afterwards, the cells were washed twice with 100 μL/well of pre-cooled PBS, centrifuged at 500 g for 5 min at 4° C., and followed by discarding the supernatant. 100 μL/well of fluorescent secondary antibody (Alexa Fluor 488-conjugated AffiniPure Goat Anti-Human IgG, Fcγ Fragment Specific, Jackson, Cat#: 109-545-06, 1:500 dilution) was added and incubated for 30 min at 4° C. in the dark. […] Finally, the cells were resuspended with 200 μL/well of pre-cooled PBS, and the fluorescence luminescence signal values were read by BD FACS CANTOII. […]

T4 sequence (A0A2K5UD97 entry or part of it): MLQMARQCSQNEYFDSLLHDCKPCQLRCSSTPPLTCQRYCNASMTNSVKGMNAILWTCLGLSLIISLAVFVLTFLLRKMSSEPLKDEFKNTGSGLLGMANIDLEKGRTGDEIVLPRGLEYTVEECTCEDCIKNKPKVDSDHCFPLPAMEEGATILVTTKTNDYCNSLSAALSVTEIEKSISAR
T3 sequence (P07766 23-126, chain 1 of 2): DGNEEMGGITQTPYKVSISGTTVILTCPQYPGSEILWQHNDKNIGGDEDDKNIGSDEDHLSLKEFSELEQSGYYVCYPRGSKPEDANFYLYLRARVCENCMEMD
T3 sequence (P09693 23-116, chain 2 of 2): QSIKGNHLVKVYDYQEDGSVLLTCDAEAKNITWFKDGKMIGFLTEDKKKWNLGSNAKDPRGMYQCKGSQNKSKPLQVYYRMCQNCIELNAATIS

B1: BCMA x CD3 bispecific antibody PR003178 (bispecific antibody, human IgG1, lambda, L234A L235A)
heavy 1: not shown
light: QAVVTQEPSLTVSPGGTVTLTCRSSTGAVTTSNYANWVQQKPGQAPRGLIGGTNKRAPWTPARFSGSLLGDKAALTLLGAQPEDEAEYFCALWYSNLWVFGGGTKLTVLGQPKAAPSVTLFPPSSEELQANKATLVCLISDFYPGAVTVAWKADSSPVKAGVETTTPSKQSNNKYAASSYLSLTPEQWKSHRSYSCQVTHEGSTVEKTVAPTECS
heavy 2: EVQLVETGGGLIQPGGSLRLSCAASGFTVSDNYMTWVRQAPGKGLEWVSVIFSGGNTYYADSVKGRFTISRDNAKNTLYLQMNSLRAEDTALYYCARRNYDDTRGTDVFDIWGQGTMVTVSSGGGGSGGGGSGGGGSEVQLVETGGGLIQPGGSLRLSCAASGFTVSDNYMTWVRQAPGKGLEWVSVIFSGGNTYYADSVKGRFTISRDNAKNTLYLQMNSLRAEDTALYYCARRNYDDTRGTDVFDIWGQGTMVTVSSASEPKSSDKTHTCPPCPAPEAAGGPSVFLFPPKPKDTLMISRTPEVTCVVVDVSHEDPEVKFNWYVDGVEVHNAKTKPREEQYNSTYRVVSVLTVLHQDWLNGKEYKCKVSNKALPAPIEKTISKAKGQPREPQVCTLPPSREEMTKNQVSLSCAVKGFYPSDIAVEWESNGQPENNYKTTPPVLDSDGSFFLVSKLTVDKSRWQQGNVFSCSVMHEALHNHYTQKSLSLSPGK
notes: Three chains: HC1 (anti-CD3 heavy, knob, LALA), LC (anti-CD3 lambda light), HC2 (two tandem anti-BCMA VH of PR001046 joined by (G4S)3, then Fc hole, LALA); also called PRO03178
Q: Which results are given for B1?
A: EC50 [1]: 1.1 nM; Kd [2]: ~0.0949 nM; Kd [3]: ~25.4 nM; EC50 [4]: 0.921 nM
